According to patent publication US7098025B1, “Human peroxisome proliferator activated receptor gamma (pparγ) gene regulatory sequences and uses therefor” (Ligand Pharmaceuticals Incorporated, priority 1997, dated 2006):

Legend:
human PPARγ1 promoter = experiment: pGL3γ1p3000 luciferase reporter cotransfection; format: cell-based; details: expression vector cotransfected
Excerpt: (§1) To assess whether ADD-1 regulates the expression of the hPPARγ3 mRNA, we cotransfected either an expression plasmid coding for ADD-1 together with the pGL3γ3p800 luciferase reporter vector. When Hep G2 cells were cotransfected with the ADD-1 expression vector, the luciferase activity was increased at least 4-fold relative to the basal activity of the hPPARγ3 promoter.
To isolate the PPARγ1 promoter, an 8-kb EcoRI fragment, which hybridized with the oligonucleotide LF-2 (corresponding to the 5′-UTR of γ1), was cloned into pBluescript. […] To test for promoter activity, a SacI/XhoI digestion of this clone containing the 3-kb promoter was inserted in the same sites of pGL3, resulting in the final vector pGL3 γ1p3000. The pSG5-haPPARγ (39) and pMSV-C/EBPβ (10) expression vectors were described elsewhere. Transfections were carried out in 60-mm plates using standard calcium phosphate precipitation techniques (for 3T3-L1, CV-1, and COS cells) (22). Luciferase and […] assays were carried out exactly as described previously (22).
(§2) Site-directed mutagenesis of the E-box in the PPARγ3 promoter was performed by splicing overlapping ends polymerase chain reaction (Ho, et al., Gene 77:51–59 (1989)), using the oligo pairs LF-106/LF-60 and LF-107/LF-68, to generate the plasmid pGL3γ3p800-E-boxmut. […]

PPARγ mRNA [1] = experiment: RNase protection assay of endogenous PPARγ mRNA in electroporated Hep G2 cells; format: cell-based, human; details: Hep G2 cells electroporated with expression vector; 48 hr after transfection
Excerpt: To investigate whether ADD-1/SREBP-1 expression was sufficient to regulate the expression of the endogeneous PPARγ3 mRNA, Hep G2 cells were electroporated with vectors expressing either SREBP-1a (Yokoyama et al., Cell 75:187–197 (1993)) or ADD-1 (Tontonoz et al., Mol. Cell. Biol. 13:4753–4759 (1993)). RNA was extracted 48 hr after transfection and analysed by RNase protection assay for the presence of PPARγ mRNA.
The absolute mRNA concentration of the differentially spliced PPARγ variants was measured by RNase protection assay exactly as described (Lemberger et al., J. Biol. Chem. 271:1764–1769 (1995)). The full lenght PPARγ2 coding region plus 33 bp of the 5′ UTR was amplified from human adipose tissue RNA by RT-PCR with the primer pair LF-3/LF-36 and was inserted in the inverted orientation (3′ to 5′ in front of the T7 promoter) into the EcoRI site of the expression vector pSG5 (Stratagene, La Jolla, Calif.). The resulting plasmid pSG5-hPPARγ2-inv was digested with EcoRV and religated, yielding the vector pSG5-hPPARγ2-RPA, which was used as a template for the synthesis of the anti-sense RNA probe, to measure the relative amounts of PPARγ2 relative to PPARγ1 and 3 mRNA. […]

human PPARγ2 promoter = experiment: pGL3γ2p1000 luciferase reporter cotransfection; format: cell-based; details: expression vector cotransfected
Excerpt: as §1
A 1-kb fragment of PAC clone 8856 was isolated by PCR using the oligonucleotides LF-35 (binding antisense in the PPARγ2 5′-UTR) and the oligonucleotide LF-58 (binding sense at position −1000 of the PPARγ2), was sequenced, and was inserted into EcoRV site of pBluescript (Stratagene, La Jolla, Calif.). After digestion of plasmid pBS γ2p1000 with SmaI and KpnI, the insert was cloned into the reporter vector pGL3 (Promega), creating the expression vector pGL3γ2p1000.
as §2

hPPARγ3 promoter = experiment: pGL3γ3p800 luciferase reporter cotransfection in Hep G2 cells; format: cell-based, human; details: E-box mutated
Excerpt: as §1
A 800 bp fragment of the PAC clone 8856 was isolated by PCR using the amplimers LF-60 (binding to the antisense strand in exon A2) and LF-68 (binding sense at position −800 of the PPARγ3 promoter). This PCR fragment was sequenced, inserted into the EcoRV site of pBluescript SK+ (Stratagene, La Jolla, USA), and after SpeI and KpnI restriction subcloned into pGL3 (Promega, Madison, USA), creating the reporter vector pGL3γ3p800.
as §2

PPARγ mRNA [2] = experiment: RNase protection assay of PPARγ mRNA in retrovirally infected 3T3-L1 cells; format: cell-based, mouse; details: 3T3-L1 preadipocytes and adipocytes; retroviral ectopic expression
Experimental: To study the effects of ADD-1 on PPARγ expression in more detail, either an empty retroviral vector pBabe or the same vector encoding for full length ADD-1 or the superactive ADD-1-403 form were introduced into 3T3-L1 cells via retroviral infection. […] Infected cells were then cultured to confluence and consecutively treated with differentiation medium. Total RNA was isolated at confluence (preadipocytes) and at day 6 after confluence (adipocytes) from the cells expressing either the empty pBabe vector or the same vector encoding for ADD-1 or ADD-1-403, a truncated form of ADD-1, equivalent to the proteolytically activated protein, which lacks the membrane anchoring domain. […] The effect of retroviral infection was more pronounced in 3T3-L1 adipocytes relative to preadipocytes.
Control cells received vehicle only.
The absolute mRNA concentration of the differentially spliced PPARγ variants was measured by RNase protection assay exactly as described (Lemberger et al., J. Biol. Chem. 271:1764–1769 (1995)). The full lenght PPARγ2 coding region plus 33 bp of the 5′ UTR was amplified from human adipose tissue RNA by RT-PCR with the primer pair LF-3/LF-36 and was inserted in the inverted orientation (3′ to 5′ in front of the T7 promoter) into the EcoRI site of the expression vector pSG5 (Stratagene, La Jolla, Calif.). […]

B1: ADD-1: basic helix-loop-helix leucine zipper transcription factor, expressed from a cotransfected, electroporated or retroviral vector (protein, UniProt P56720 1-1134, looked up)
Sterol regulatory …: MDELPFGEAALEQALAEVCEMDAALLTDIEDMLQLINNQDSDFPGLFDAPYAGGETGDTGPSSPGASSPESFSSPASLGSSLEAFLGGPKVTPAPLSPPPSAPTAVKMYPSVPPFSPGPGIKEEPVPLTILQPPAPQPSPGTLLPPSFPPPPVQLSPAPVLGYSSLPSGFSGTLPGNTQQTPSSLPLGSTPGISPTPLHTQVQSSAAQQPPPASAAPRMSTVASQIQQVPVVLQPHFIKADSLLLTAVKTDTGATMKTAGINTLAPGTAVQAGPLQTLVSGGTILATVPLVVDTDKLPIHRLAAGGKALGSAQSRGEKRTAHNAIEKRYRSSINDKIVELKDLVVGTEAKLNKSAVLRKAIDYIRFLQHSNQKLKQENLTLRSAHKSKSLKDLVSACGSGGGTDVSMEGMKPEVVETLTPPPSDAGSPSQSSPLSLGSRGSSSGGSDSEPDSPAFEDNQVKAQRLPSHSRGMLDRSRLALCVLVFLCLTCNPLASLFGWGILTPSDASGVHRSSGRSMLEAESRDGSNWTQWLLPPLVWLANGLLVLACLALLFVYGEPVTRPHSGPAVHFWRHRKQADLDLARGDFAQAAQQLWLALQALGRPLPTSNLDLACSLLWNLVRHLLQRLWVGRWLAGQAGGLQRDYRLRKDARASARDAAVVYHKLHQLHAMGKYTGGHLVASNLALSALNLAECAGDAISMATLAEIYVAAALRVKTSLPRALHFLTRFFLSSARQACLAQSGAVPLAMQWLCHPVGHRFFVDGDWAVHGAPQESLYSVAGNPVDPLAQVTRLFCEHLLERALNCIAQPSPGAADGDREFSDALGYLQLLNSCSDAVGAPACSFSVSSSMATTTGTDPVAKWWASLTAVVIHWLRRDEEAAERLYPLVEHIPQVLQETERPLPRAALYSFKAARALLDHRKVESSPASLAICEKASGYLRDSLASTSTASSIDKAMQLLLCDLLLVARTSLWRRQQSAASAQGAHGTSNGPQASALELRGFQHDLSSLRRLAQSFRPAMRRVFLHEATARLMAGASPARTHQLLDRSLRRRAGSSGKGGAAAELEPRPTWREHTEALLLASCYLPPAFLSAPGQRVSMLAEAARTVEKLGDHRLLLDCQQMLLRLGGGTTVTSS
activity of pGL3γ1p3000 reporter construct (human PPARγ1 promoter): unaffected
PPARγ1 mRNA increase (PPARγ mRNA [1]): approximately 3 fold
activity of pGL3γ2p1000 reporter construct (human PPARγ2 promoter): unaffected
stimulation of mutated pGL3γ3p800-E-boxmut reporter vector (hPPARγ3 promoter): unable to stimulate
expression of PPARγ mRNA (PPARγ mRNA [2]): induced
